In publication PMC6929975, “A supramolecular protein chaperone for vaccine delivery” (Theranostics, 2020):

Test system: bone marrow-derived dendritic cells (BMDCs)
Assay: Antigen uptake by BMDCs (confocal microscopy; OVA-Rhod)
Format: cell-based
Conditions: 1 h, 37 °C, OVA-Rhod 2.5 µg mL^-1 (soluble) or Comp./OVA = 10:1 w/w
Procedure: Figure 5 Vaccine promoting antigen uptake by BMDCs. […] Magnification: 63 ×. (B) The percentage of OVA-Rhod-positive cells is shown. (C) Total fluorescence intensity of OVA-Rhod was measured; total fluorescence intensity (FI) = % of positive cells × mean fluorescence intensity. The bars shown represent the mean ± SE, and differences among groups were determined using one-way ANOVA. The asterisks indicate the significance of differences between the Vac-1 group and the indicated group. *: p < 0.05, **: p < 0.01.

B1: RBITC-OVA: OVA labelled with Rhodamine b isothiocyanate, soluble (protein, UniProt P01012 2-386, looked up)
Ovalbumin: GSIGAASMEFCFDVFKELKVHHANENIFYCPIAIMSALAMVYLGAKDSTRTQINKVVRFDKLPGFGDSIEAQCGTSVNVHSSLRDILNQITKPNDVYSFSLASRLYAEERYPILPEYLQCVKELYRGGLEPINFQTAADQARELINSWVESQTNGIIRNVLQPSSVDSQTAMVLVNAIVFKGLWEKAFKDEDTQAMPFRVTEQESKPVQMMYQIGLFRVASMASEKMKILELPFASGTMSMLVLLPDEVSGLEQLESIINFEKLTEWTSSNVMEERKIKVYLPRMKMEEKYNLTSVLMAMGITDVFSSSANLSGISSAESLKISQAVHAAHAEINEAGREVVGSAEAGVDAASVSEEFRADHPFLFCIKHIATNAVLFFGRCVSP
modifications: rhodamine B isothiocyanate label
notes: OVA labelled with Rhodamine b isothiocyanate, soluble
- uptake of RBITC-OVA by DCs: poor uptake
